From US20050026219

What was measured:
[1] = test system: T1, Raytide EL (protein-tyrosine-kinase substrate, MW 2476 Dalton, Messrs. Calbiochem)
T1 sequence: KKKGPWLEEEEEAYGWLDF

[2] = test system: oligopeptide Ac-Ile-Tyr-Gly-Glu-Phe-NH2 "M-2165" (Messrs. Bachem, MW 668.8)

| Substance | phosphorylation of the substrate, detected by RIfS through the fall of free anti-phosphotyrosine antibody [1] | phosphorylation of the substrate, detected by RIfS (AMD sensor) through the fall of free anti-phosphotyrosine antibody [2] | phosphorylation of the substrate, detected by RIfS (diamino-PEG 2000 sensor) through the fall of free anti-phosphotyrosine antibody [2] |
| --- | --- | --- | --- |
| Epidermal Growth Factor Receptor Kinase (EGF-RK) isolated from human A 431 carcinoma cells (Messrs. Sigma) | The phosphorylation with the alternative substrate (SEQ ID NO.:3) Raytide™ EL is clearly detectable. | – | – |
| p60c-src-kinase isolated from human cells (Messrs. Calbiochem) | – | The phosphorylation is very clearly detectable. | The phosphorylation is very clearly detectable. |
